Experimental data taken from patent US20190106460A1 (published 2019).
“And” between values parts separate entries of the source, which are not always exact repeats. Identical values can stand only once. Starred links: 1 amine or outer side, 2 acyl side, 3 side chain; linkers in the order of their positions; H or OH if unused. Non-standard residues stand in square brackets, D forms with d. *: point of attachment. Tyr(Me) = O-methyl-L-tyrosine, COc1ccc(C[C@H](N[*:1])C(=O)[*:2])cc1; Phe(4-NO2) = N[C@@H](Cc1ccc([N+](=O)[O-])cc1)C(=O)O; Benzenesulfonyl(4-OMe) = COc1ccc(S(=O)(=O)*)cc1; E(Me) = COC(=O)CC[C@H](N[*:1])C(=O)[*:2]; Phe(3-Cl) = N[C@@H](Cc1cccc(Cl)c1)C(=O)O; Phe(4-Br) = N[C@@H](Cc1ccc(Br)cc1)C(=O)O; Phe(3-F) = N[C@@H](Cc1cccc(F)c1)C(=O)O; Phe(4-F) = N[C@@H](Cc1ccc(F)cc1)C(=O)O; 1Nal = N[C@@H](Cc1cccc2ccccc12)C(=O)O; Suc = O=C(CCC(=O)[*:2])[*:1]; Tos = Cc1ccc(S(=O)(=O)*)cc1; βE = a beta form of Glu

Assays:
[1] = target: T1, βTrCP (tag cleaved and complexed with Skp1) (UniProt Q9Y297 175-605; P63208 1-163); experiment: FP competition vs fluorescein-IκB peptide
T1 construct: Protein of the FP assay (0.035 µM); also called Beta Transducin repeat-containing protein; βTrCP/Skp1

[2] = target: T1, βTrCP (tag cleaved and complexed with …); experiment: FP competition vs fluorescein-IκB peptide; remark: listed apart in the source
[3] = target: T2, HisβTrCP/Skp1 and HisβTrCP/GSTSkp1 (immobilised on NTA Biacore chip) (UniProt Q9Y297 175-605; P63208 1-163); experiment: SPR (Biacore T200), single cycle run up to 1e-6 M, steady-state fit of the run shown; Rmax 2.093 RU, Chi² 0.0110 RU² [A]
T2 construct: SPR: KD values from both surfaces (with or without the GST moiety) were averaged to give the apparent KD; also called βTrCP surfaces
T2 sequence (Q9Y297 175-605, chain 1 of 2): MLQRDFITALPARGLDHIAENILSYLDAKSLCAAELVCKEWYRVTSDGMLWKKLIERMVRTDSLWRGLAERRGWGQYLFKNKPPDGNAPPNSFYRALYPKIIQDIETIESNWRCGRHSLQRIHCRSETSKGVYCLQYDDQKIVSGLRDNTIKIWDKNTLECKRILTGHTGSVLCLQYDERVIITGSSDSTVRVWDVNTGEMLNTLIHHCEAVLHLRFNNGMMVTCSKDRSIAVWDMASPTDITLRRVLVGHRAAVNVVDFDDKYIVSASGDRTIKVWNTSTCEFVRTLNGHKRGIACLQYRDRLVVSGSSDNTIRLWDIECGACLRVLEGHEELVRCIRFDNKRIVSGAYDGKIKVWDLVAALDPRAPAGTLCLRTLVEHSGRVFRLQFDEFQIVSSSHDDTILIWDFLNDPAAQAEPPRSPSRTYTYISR
T2 sequence (P63208 whole entry, chain 2 of 2): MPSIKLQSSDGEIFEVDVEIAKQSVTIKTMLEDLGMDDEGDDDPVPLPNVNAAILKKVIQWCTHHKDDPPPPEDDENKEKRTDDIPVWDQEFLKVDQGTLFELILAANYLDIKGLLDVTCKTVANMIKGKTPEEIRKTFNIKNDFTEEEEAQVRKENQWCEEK
Text: (§1) As βTrCP was His tagged, an NTA sensor chip was used. This sensor chip has a dextran surface matrix with immobilized nitrilotriacetic acid (NTA) which provides a means of capturing polyHis-tagged proteins through Nickel chelation. It was hoped that addition of Ni⁺ would orient the protein in a specific (and hopefully active) manner as it is covalently immobilised via amine coupling. Addition of EDC:NHS (N-ethyl-N′-(3-[…])-carbodiimide:N-hydroxysuccinimide) converts carboxyl groups on the dextran sensor chip surface to succinamide esters which readily form covalent bonds with primary amines. Each chip contains four flow cells (each a separate surface) which means that compounds/peptides can be passed over different forms of βTrCP and a reference surface simultaneously. If binding to βTrCP is occurring, responses should be the same (accounting for differences in density of surface etc) on each surface.
(§2) Small molecule/peptide samples to be assayed for binding to βTrCP surfaces, were provided as 10 mM stocks in 100% DMSO. All samples were tested in running buffer composed of 10 mM HEPES pH 7.4, 150 mM NaCl, 50 μM EDTA, 0.005% p20, and 1% DMSO. Serial dilutions were made using running buffer. […] KD values calculated from binding curves from both surfaces (with or without the GST moiety) were averaged to produce apparent KD's for each sample tested.

Skp2 = Skp2 (UniProt Q13309 1-424, limits assumed); experiment: cell-based or functional assay
Sequence of Skp2 (Q13309 whole entry): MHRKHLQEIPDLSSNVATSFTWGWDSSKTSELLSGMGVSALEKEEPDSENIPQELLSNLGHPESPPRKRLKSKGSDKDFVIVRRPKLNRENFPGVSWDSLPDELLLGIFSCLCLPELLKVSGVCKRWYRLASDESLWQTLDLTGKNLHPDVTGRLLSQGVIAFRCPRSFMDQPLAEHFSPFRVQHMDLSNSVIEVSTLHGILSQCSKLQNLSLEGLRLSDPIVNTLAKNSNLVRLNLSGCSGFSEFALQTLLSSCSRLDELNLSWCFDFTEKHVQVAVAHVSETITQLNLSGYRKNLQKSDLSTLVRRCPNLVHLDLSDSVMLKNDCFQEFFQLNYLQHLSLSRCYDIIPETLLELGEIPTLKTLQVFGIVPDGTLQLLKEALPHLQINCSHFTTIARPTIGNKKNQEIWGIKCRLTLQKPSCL

Fbw7 = Fbw7 (UniProt Q969H0 263-707, limits assumed); experiment: cell-based or functional assay
Sequence of Fbw7 (Q969H0 263-707 limits assumed): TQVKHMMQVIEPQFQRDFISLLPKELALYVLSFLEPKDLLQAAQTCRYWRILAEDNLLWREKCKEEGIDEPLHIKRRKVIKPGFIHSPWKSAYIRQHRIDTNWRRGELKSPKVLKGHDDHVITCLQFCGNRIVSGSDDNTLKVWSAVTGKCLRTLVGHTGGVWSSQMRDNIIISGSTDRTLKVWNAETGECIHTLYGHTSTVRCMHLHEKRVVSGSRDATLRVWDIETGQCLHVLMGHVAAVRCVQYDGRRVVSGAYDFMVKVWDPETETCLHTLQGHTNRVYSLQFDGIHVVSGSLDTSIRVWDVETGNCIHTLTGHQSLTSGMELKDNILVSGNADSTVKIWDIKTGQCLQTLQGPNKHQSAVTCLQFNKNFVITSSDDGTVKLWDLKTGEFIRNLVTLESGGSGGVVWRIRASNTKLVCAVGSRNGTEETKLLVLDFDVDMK

[4] = target: T1, βTrCP (tag cleaved and complexed with …); experiment: FP competition vs fluorescein-IκB peptide; remark: listed apart in the source
[5] = target: T2, HisβTrCP/Skp1 and HisβTrCP/GSTSkp1 …; experiment: SPR, Biacore T200, βTrCP/Skp1 immobilised
Text: as §1
Small molecule/peptide samples to be assayed for binding to βTrCP surfaces, were provided as 10 mM stocks in 100% DMSO. All samples were tested in running buffer composed of 10 mM HEPES pH 7.4, 150 mM NaCl, 50 μM EDTA, 0.005% p20, and 1% DMSO. Serial dilutions were made using running buffer. Samples were tested over varying concentrations up to a maximum of 100 μM. Two methods of measuring the SPR response were employed: single cycle kinetics which measures the response across different concentrations of sample within a single cycle (no regeneration of surface) and a method that measures the response at a given concentration in each cycle and includes a regeneration wash after each sample injection. The regeneration solution used was the same as running buffer, but included 500 mM NaCl. Data was fitted using Biacore T200 evaluation software. KD values calculated from binding curves from both surfaces (with or without the GST moiety) were averaged to produce apparent KD's for each sample tested.

[6] = target: T2, HisβTrCP/Skp1 and HisβTrCP/GSTSkp1 …; experiment: SPR (Biacore T200), single cycle run up to 1e-6 M, steady-state fit of the run shown; Rmax 4.264 RU, Chi² 0.00601 RU² [B]
Text: as §1, §2

[7] = target: T3, βTrCP (tag cleaved and complexed with Skp1) (UniProt Q9Y297 175-605; P63208 1-163); experiment: FP competition, 10 nM fluorescein-IκB peptide on βTrCP/Skp1
T3 construct: Protein of the fluorescence polarisation assay, 0.035 µM; also called Beta Transducin repeat-containing protein; βTrCP/Skp1
Procedure: Binding of the compounds to βTrCP was assessed using a fluorescence polarisation (FP) binding assay. The FP assay is an in vitro binding assay using a fluorescein-tagged IkB peptide at 10 nM to mimic substrate binding to βTrCP, and was performed as described above.
Four sequences were selected for re-synthesis and testing in the FP assay, which was performed as described above along with 4 negative controls.

[8] = target: T2, HisβTrCP/Skp1 and HisβTrCP/GSTSkp1 …; experiment: SPR (Biacore T200), single cycle run up to 1e-6 M, steady-state fit of the run shown; Rmax 1.318 RU, Chi² 0.00773 RU² [D]
Text: as §1, §2

[9] = target: T2, HisβTrCP/Skp1 and HisβTrCP/GSTSkp1 …; experiment: SPR (Biacore T200), single cycle run up to 1e-6 M, steady-state fit of the run shown; Rmax 2.156 RU, Chi² 0.00730 RU² [E]
Text: as §1, §2

[10] = target: T2, HisβTrCP/Skp1 and HisβTrCP/GSTSkp1 …; experiment: SPR (Biacore T200), single cycle run up to 1e-6 M, steady-state fit of the run shown; Rmax 3.459 RU, Chi² 0.00452 RU² [C]
Text: as §1, §2

B1: Suc-EG-F(4NO2)-F(4NO2)-NH2 (peptide)
peptide: Suc-EG[Phe(4-NO2)][Phe(4-NO2)]-NH2
SMILES: NC(=O)[C@H](Cc1ccc([N+](=O)[O-])cc1)NC(=O)[C@H](Cc1ccc([N+](=O)[O-])cc1)NC(=O)CNC(=O)[C@H](CCC(=O)O)NC(=O)CCC(=O)O
IC50 [1]: 78000 nM

B2: Suc-βE-GYFE-NH2 (peptide)
peptide: Suc-[βE]GYFE-NH2
modifications: not fully specified; printed as Suc-βE-GYFE-NH2
IC50 [1]: 30000 nM

B3: Suc-EG-F(4Br)-F(3F)-NH2 (peptide)
peptide: Suc-EG[Phe(4-Br)][Phe(3-F)]-NH2
SMILES: NC(=O)[C@H](Cc1cccc(F)c1)NC(=O)[C@H](Cc1ccc(Br)cc1)NC(=O)CNC(=O)[C@H](CCC(=O)O)NC(=O)CCC(=O)O
IC50 [1]: 81000 nM

B4: Ts-dEGF(3Cl)WE(Me)-NH2 (peptide)
peptide: Tos-[dD]EG[Phe(3-Cl)]W[E(Me)]-NH2
notes: also called UBP033
IC50 [2]: 17 nM | Kd [3]: 21.6 nM | % Inhibition Skp2 @ 10 µM (Skp2): 0% | % Inhibition Skp2 @ (100 µM) (Skp2): 10% | % Inhibition Fbw7 @ 10 µM (Fbw7): 7% | % Inhibition Fbw7 @ (100 µM) (Fbw7): 11% | IC50 [4]: 17 nM | Kd [5]: 47 nM

B5: Ts-dEGF(3Cl)WE-NH2 (peptide)
peptide: Tos-[dD]EG[Phe(3-Cl)]WE-NH2
SMILES: Cc1ccc(S(=O)(=O)N[C@H](CC(=O)O)C(=O)N[C@@H](CCC(=O)O)C(=O)NCC(=O)N[C@@H](Cc2cccc(Cl)c2)C(=O)N[C@@H](Cc2c[nH]c3ccccc23)C(=O)N[C@@H](CCC(=O)O)C(N)=O)cc1
notes: also called UBP034
IC50 [2]: 10 nM | % Inhibition Skp2 @ 10 µM (Skp2): 0% | % Inhibition Skp2 @ (100 µM) (Skp2): 0% | % Inhibition Fbw7 @ 10 µM (Fbw7): 8% | % Inhibition Fbw7 @ (100 µM) (Fbw7): 6% | Kd [6]: 80.8 nM | IC50 [4]: 10 nM | Kd [5]: 154 nM

B6: Suc-EGFF-NH2 (peptide)
peptide: Suc-EGFF-NH2
SMILES: NC(=O)[C@H](Cc1ccccc1)NC(=O)[C@H](Cc1ccccc1)NC(=O)CNC(=O)[C@H](CCC(=O)O)NC(=O)CCC(=O)O
IC50 [1]: 46000 nM

B7: Suc-EG-1Nal-Y(Me)-E-NH2 (peptide)
peptide: Suc-EG[1Nal][Tyr(Me)]E-NH2
IC50 [1]: 5400 nM

B8: Phth-EGFFE-NH2 (peptide)
peptide: Phth-EGFFE-NH2
IC50 [7]: 10900 nM

B9: Suc-EGFFE-NH2 (peptide)
peptide: Suc-EGFFE-NH2
SMILES: NC(=O)[C@H](CCC(=O)O)NC(=O)[C@H](Cc1ccccc1)NC(=O)[C@H](Cc1ccccc1)NC(=O)CNC(=O)[C@H](CCC(=O)O)NC(=O)CCC(=O)O
notes: also called UBP002; succ-EGFFE
IC50 [7]: 3180 nM

B10: Suc-EG-F(3F)-F(3F)-NH2 (peptide)
peptide: Suc-EG[Phe(3-F)][Phe(3-F)]-NH2
SMILES: NC(=O)[C@H](Cc1cccc(F)c1)NC(=O)[C@H](Cc1cccc(F)c1)NC(=O)CNC(=O)[C@H](CCC(=O)O)NC(=O)CCC(=O)O
IC50 [1]: 44000 nM

B11: Suc-EGYF-NH2 (peptide)
peptide: Suc-EGYF-NH2
IC50 [1]: 31000 nM

B12: Suc-EGY-F(4NO2)-NH2 (peptide)
peptide: Suc-EGY[Phe(4-NO2)]-NH2
SMILES: NC(=O)[C@H](Cc1ccc([N+](=O)[O-])cc1)NC(=O)[C@H](Cc1ccc(O)cc1)NC(=O)CNC(=O)[C@H](CCC(=O)O)NC(=O)CCC(=O)O
IC50 [1]: 91000 nM

B13: Suc-EGY-F(4F)-NH2 (peptide)
peptide: Suc-EGY[Phe(4-F)]-NH2
SMILES: NC(=O)[C@H](Cc1ccc(F)cc1)NC(=O)[C@H](Cc1ccc(O)cc1)NC(=O)CNC(=O)[C@H](CCC(=O)O)NC(=O)CCC(=O)O
IC50 [1]: 71000 nM

B14: Suc-QGYF-NH2 (peptide)
peptide: Suc-QGYF-NH2
SMILES: NC(=O)CC[C@H](NC(=O)CCC(=O)O)C(=O)NCC(=O)N[C@@H](Cc1ccc(O)cc1)C(=O)N[C@@H](Cc1ccccc1)C(N)=O
IC50 [1]: 49000 nM

B15: Suc-EGY-F(3F)-NH2 (peptide)
peptide: Suc-EGY[Phe(3-F)]-NH2
SMILES: NC(=O)[C@H](Cc1cccc(F)c1)NC(=O)[C@H](Cc1ccc(O)cc1)NC(=O)CNC(=O)[C@H](CCC(=O)O)NC(=O)CCC(=O)O
IC50 [1]: 91000 nM

B16: Ts-DEGF(3F)WE-NH2 (peptide)
peptide: Tos-DEG[Phe(3-F)]WE-NH2
SMILES: Cc1ccc(S(=O)(=O)N[C@@H](CC(=O)O)C(=O)N[C@@H](CCC(=O)O)C(=O)NCC(=O)N[C@@H](Cc2cccc(F)c2)C(=O)N[C@@H](Cc2c[nH]c3ccccc23)C(=O)N[C@@H](CCC(=O)O)C(N)=O)cc1
notes: also called UBP024
IC50 [2]: 18 nM | Kd [8]: 40 nM | % Inhibition Skp2 @ 10 µM (Skp2): 0% | % Inhibition Skp2 @ (100 µM) (Skp2): 7% | % Inhibition Fbw7 @ 10 µM (Fbw7): 0% | % Inhibition Fbw7 @ (100 µM) (Fbw7): 8% | IC50 [4]: 18 nM | Kd [5]: 19 nM

B17: Ts-dEGF(3F)WE(Me)-NH2 (peptide)
peptide: Tos-[dD]EG[Phe(3-F)]W[E(Me)]-NH2
notes: also called UBP032
IC50 [2]: 22 nM | Kd [9]: 108 nM | % Inhibition Skp2 @ 10 µM (Skp2): 0% | % Inhibition Skp2 @ (100 µM) (Skp2): 0% | % Inhibition Fbw7 @ 10 µM (Fbw7): 4% | % Inhibition Fbw7 @ (100 µM) (Fbw7): 10% | IC50 [4]: 22 nM | Kd [5]: 170 nM

B18: Suc-EG-F(4Br)-F-NH2 (peptide)
peptide: Suc-EG[Phe(4-Br)]F-NH2
SMILES: NC(=O)[C@H](Cc1ccccc1)NC(=O)[C@H](Cc1ccc(Br)cc1)NC(=O)CNC(=O)[C@H](CCC(=O)O)NC(=O)CCC(=O)O
IC50 [1]: 38000 nM and 39000 nM

B19: 4-(MeO)-PhSO2-dEGF(3F)WE-NH2 (peptide)
peptide: {Benzenesulfonyl(4-OMe)}-[dD]EG[Phe(3-F)]WE-NH2
SMILES: COc1ccc(S(=O)(=O)N[C@H](CC(=O)O)C(=O)N[C@@H](CCC(=O)O)C(=O)NCC(=O)N[C@@H](Cc2cccc(F)c2)C(=O)N[C@@H](Cc2c[nH]c3ccccc23)C(=O)N[C@@H](CCC(=O)O)C(N)=O)cc1
notes: also called UBP022
IC50 [2]: 17 nM | % Inhibition Skp2 @ 10 µM (Skp2): 7% | % Inhibition Skp2 @ (100 µM) (Skp2): 12% | % Inhibition Fbw7 @ 10 µM (Fbw7): 0% | % Inhibition Fbw7 @ (100 µM) (Fbw7): 18% | Kd [10]: 49.8 nM | IC50 [4]: 17 nM | Kd [5]: 48 nM
